Assays:
HeLa Kyoto [1] = assay: solubility in G1/S (NP-40 vs SDS abundance) (log2 ratio); higher = more soluble; details: cell cycle stage: G1/S
HeLa Kyoto [2] = assay: solubility change mitosis vs G1/S (difference of NP-40 vs SDS log2 ratios) (log2 ratio difference); higher = more soluble in mitosis
HeLa Kyoto [3] = assay: melting temperature (median over replicates), in situ; higher = more thermally stable
HeLa Kyoto [4] = assay: thermal stability score vs G1/S (z-score of summed log2 fold changes over temperatures); higher = more thermally stable than in G1/S
[5] = cell cycle stage: early G1 (4.5 h after nocodazole release)
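For melting temperature (median over replicates), in situ in this document: HeLa Kyoto cells synchronized by double thymidine or nocodazole block, proteins quantified by TMT10plex mass spectrometry, three independent biological replicates.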
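For solubility change mitosis vs G1/S (difference of NP-40 vs SDS log2 ratios) in this document: synchronized HeLa Kyoto cells (double thymidine block for G1/S, nocodazole release for mitosis), protein amounts in NP-40 versus SDS lysates quantified by mass spectrometry, three biological replicates.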
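For solubility in G1/S (NP-40 vs SDS abundance) in this document: HeLa Kyoto cells arrested at G1/S by double thymidine block, proteins quantified by TMT10plex mass spectrometry in mild NP-40 versus SDS extracts, three biological replicates.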
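For thermal stability score vs G1/S (z-score of summed log2 fold changes over temperatures) in this document: synchronized HeLa Kyoto cells, proteins quantified by TMT10plex mass spectrometry, three biological replicates, mitosis taken 0.5 h after nocodazole release, G1/S directly after double thymidine block.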

Substance | solubility in G1/S (log2) (HeLa Kyoto [1]) | solubility change mitosis (log2) (HeLa Kyoto [2]) | melting temperature (HeLa Kyoto [3]; cell cycle stage: G1/S) [°C] | melting temperature (HeLa Kyoto [3]; cell cycle stage: mitosis) [°C] | thermal stability score (HeLa Kyoto [4]; [5]) | thermal stability score (HeLa Kyoto [4]; cell cycle stage: mitosis)
MRERIWAPPLLLLLPLLLPPPLWGGPPDSPRRELELEPGPLQPFDLLYASGAAAYYSGDYERAVRDLEAALRSHRRLREIRTRCARHCAARHPLPPPPPGEGPGAELPLFRSLLGRARCYRSCETQRLGGPASRHRVSEDVRSDFQRRVPYNYLQRAYIKLNQLEKAVEAAHTFFVANPEHMEMQQNIENYRATAGVEALQLVDREAKPHMESYNAGVKHYEADDFEMAIRHFEQALREYFVEDTECRTLCEGPQRFEEYEYLGYKAGLYEAIADHYMQVLVCQHECVRELATRPGRLSPIENFLPLHYDYLQFAYYRVGEYVKALECAKAYLLCHPDDEDVLDNVDYYESLLDDSIDPASIEAREDLTMFVKRHKLESELIKSAAEGLGFSYTEPNYWIRYGGRQDENRVPSGVNVEGAEVHGFSMGKKLSPKIDRDLREGGPLLYENITFVYNSEQLNGTQRVLLDNVLSEEQCRELHSVASGIMLVGDGYRGKTSPHTPNEKFEGATVLKALKSGYEGRVPLKSARLFYDISEKARRIVESYFMLNSTLYFSYTHMVCRTALSGQQDRRNDLSHPIHADNCLLDPEANECWKEPPAYTFRDYSALLYMNDDFEGGEFIFTEMDAKTVTASIKPKCGRMISFSSGGENPHGVKAVTKGKRCAVALWFTLDPLYRELERIQADEVIAILDQEQQGKHELNINPKDEL [P3H2] | -0.176 | -0.0732 | 53.7 | 53.9 | 4.77 | 5.82
MELVAGCYEQVLFGFAVHPEPEACGDHEQWTLVADFTHHAHTASLSAVAVNSRFVVTGSKDETIHIYDMKKKIEHGALVHHSGTITCLKFYGNRHLISGAEDGLICIWDAKKWECLKSIKAHKGQVTFLSIHPSGKLALSVGTDKTLRTWNLVEGRSAFIKNIKQNAHIVEWSPRGEQYVVIIQNKIDIYQLDTASISGTITNEKRISSVKFLSESVLAVAGDEEVIRFFDCDSLVCLCEFKAHENRVKDMFSFEIPEHHVIVSASSDGFIKMWKLKQDKKVPPSLLCEINTNARLTCLGVWLDKVADMKESLPPAAEPSPVSKEQSKIGKKEPGDTVHKEEKRSKPNTKKRGLTGDSKKATKESGLISTKKRKMVEMLEKKRKKKKIKTMQ [PAK1IP1] | -1.64 | 0.614 | 56.5 | 53.8 | -1.32 | -5.78
MAAPEEHDSPTEASQPIVEEEETKTFKDLGVTDVLCEACDQLGWTKPTKIQIEAIPLALQGRDIIGLAETGSGKTGAFALPILNALLETPQRLFALVLTPTRELAFQISEQFEALGSSIGVQSAVIVGGIDSMSQSLALAKKPHIIIATPGRLIDHLENTKGFNLRALKYLVMDEADRILNMDFETEVDKILKVIPRDRKTFLFSATMTKKVQKLQRAALKNPVKCAVSSKYQTVEKLQQYYIFIPSKFKDTYLVYILNELAGNSFMIFCSTCNNTQRTALLLRNLGFTAIPLHGQMSQSKRLGSLNKFKAKARSILLATDVASRGLDIPHVDVVVNFDIPTHSKDYIHRVGRTARAGRSGKAITFVTQYDVELFQRIEHLIGKKLPGFPTQDDEVMMLTERVAEAQRFARMELREHGEKKKRSREDAGDNDDTEGAIGVRNKVAGGKMKKRKGR [DDX47] | -1.22 | 0.607 | 50.9 | 51.3 | 0.865 | 1.97
MDNQCTVQVRLELGHRAQLRKKPTTEGFTHDWMVFVRGPEQCDIQHFVEKVVFWLHDSFPKPRRVCKEPPYKVEESGYAGFIMPIEVHFKNKEEPRKVCFTYDLFLNLEGNPPVNHLRCEKLTFNNPTTEFRYKLLRAGGVMVMPEGADTVSRPSPDYPMLPTIPLSAFSDPKKTKPSHGSKDANKESSKTSKPHKVTKEHRERPRKDSESKSSSKELEREQAKSSKDTSRKLGEGRLPKEEKAPPPKAAFKEPKMALKETKLESTSPKGGPPPPPPPPPRASSKRPATADSPKPSAKKQKKSSSKGSRSAPGTSPRTSSSSSFSDKKPAKDKSSTRGEKVKAESEPREAKKALEVEESNSEDEASFKSESAQSSPSNSSSSSDSSSDSDFEPSQNHSQGPLRSMVEDLQSEESDEDDSSSGEEAAGKTNPGRDSRLSFSDSESDNSADSSLPSREPPPPQKPPPPNSKVSGRRSPESCSKPEKILKKGTYDKAYTDELVELHRRLMALRERNVLQQIVNLIEETGHFNVTNTTFDFDLFSLDETTVRKLQSCLEAVAT [MLLT1] | -0.205 | 0.264 | 50.5 | 53 | -0.27 | 0.333
ZCCHC6 | -0.226 | 0.0648 | 49.9 | 49.3 | 1.03 | 2.02

— the supplement of paper PMC5998384
